Reference: publication PMC7617732 (2024)

Experiments:
Assay in all cases: SPR
[1] = target: T1, 3FTx-L15 (recombinant long-chain three-finger α-neurotoxin variant)
T1 chain: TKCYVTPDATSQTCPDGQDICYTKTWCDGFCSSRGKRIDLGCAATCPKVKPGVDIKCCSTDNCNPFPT

[2] = target: T2, 3FTx-L2 (recombinant long-chain three-finger α-neurotoxin variant)
T2 chain: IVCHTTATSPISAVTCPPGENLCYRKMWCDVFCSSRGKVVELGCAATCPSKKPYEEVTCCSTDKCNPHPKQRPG

3FTx-L8 = target: 3FTx-L8
m7 = target: m7
m6 = target: m6

B1: 95Mat5 (human IgG) (antibody, V domains shown)
VH: QVQLVQSGAEVKKPGSSVKVSCKASGGTFSSYAISWVRQAPGQGLEWMGGYIPIFGTANYAQKFQGRVTITADESTSTAYMELSSLRSEDTAVYYCARIPLRWYESGPYESGVFDYWGQGTLVTVSS
VL: not shown
[1]
  Kd: 0.61 nM
[2]
  Kd: 0.72 nM
3FTx-L8
  Kd: < 0.01 nM
m7
  Kd: 0.24 nM
m6
  Kd: 0.11 nM
